This passage reports protein stability index results from the supplement of paper PMC10567573.

± gives the standard deviation.

The nature of this data set: protein stability index of a GFP-peptide fusion (GPS, HEK-293T) (PSI 1-6); higher = more stable. The conditions noted are these: c terminus: a fixed tail appended.
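Also: 24-mer peptide tiles fused after GFP, lentivirally expressed, FACS-sorted into six equal bins by GFP/DsRed ratio, decoded by Illumina sequencing, PSI is the read-weighted mean bin number.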

Turning to SATNVTCYYQPAPYVSDGNFSNYY [TENT5C], the protein stability index amounted to 2.05 ± 0.29 (treatment: DMSO) and 2.14 ± 0.28 (treatment: MLN4924 1 uM, 8 h).

In the case of LDHDIFQLIDPDENKENEAFEFKK [CDC25A], the protein stability index runs as follows: (treatment: DMSO) 4.07 ± 0.083; (treatment: MLN4924 1 uM, 8 h) 4.13 ± 0.52.

On to MKYYIVHLKRHFMFRNHLCLVFEL [DYRK1B], for which the protein stability index by setting is: (treatment: DMSO) 2.9 ± 0.53; (treatment: MLN4924 1 uM, 8 h) 2.44 ± 0.63.

As to RALQAALAESGGSPDVLQMLKIHR [TRADD], the protein stability index turned out to be 2.61 ± 0.34 (treatment: DMSO) and 2.91 ± 0.25 (treatment: MLN4924 1 uM, 8 h).

Take LWDTSGQGRFCTIFRSYSRGAQGV [RAB40A]: the protein stability index (treatment: DMSO) came out at 2.24 ± 0.41 and the protein stability index (treatment: MLN4924 1 uM, 8 h) was determined as 2.51 ± 0.36.

On to VPEEEQAANKGEEKKDDENIPMET [SMARCE1], for which the protein stability index runs as follows: (treatment: DMSO) 5.63 ± 0.19; (treatment: MLN4924 1 uM, 8 h) 5.68 ± 0.27.

Consider PKTGRISVPIDLQKVDQFDPFTVP [PRIM1], for which the protein stability index came out at 3.6 ± 0.33 (treatment: DMSO) and 3.34 ± 0.25 (treatment: MLN4924 1 uM, 8 h).

Take HFSQGSALILHQRIHSGEKPYGCV [ZNF24]: the protein stability index reads like this: (treatment: DMSO) 2.24 ± 0.37; (treatment: MLN4924 1 uM, 8 h) 2.55 ± 0.47.

As to PTESEPVTINIQDLLSCSNFAVQH [MATN2], the protein stability index reads like this: (treatment: DMSO) 3.56 ± 0.5; (treatment: MLN4924 1 uM, 8 h) 3.37 ± 0.43.

INYLGAESLRPLVQTPPGGSEVVP [IKZF1]: the protein stability index was determined as 4.07 ± 0.2 (treatment: DMSO) and 3.88 ± 0.28 (treatment: MLN4924 1 uM, 8 h).

As for KEIDDVIDEIISLESSYNDEMLSY [TFE3], the protein stability index worked out at 3.27 ± 0.26 (treatment: DMSO) and 3.5 ± 0.3 (treatment: MLN4924 1 uM, 8 h).

On to PLAVENQAGGEGAGGELGISLNMC [PBXIP1], for which the protein stability index was determined as 4.22 ± 0.25 (treatment: DMSO) and 4.12 ± 0.24 (treatment: MLN4924 1 uM, 8 h).

Take AASVRMRGEAEAFAIGARARAEAE [FLOT1]: the protein stability index reads like this: (treatment: DMSO) 5.32 ± 0.17; (treatment: MLN4924 1 uM, 8 h) 4.96 ± 0.23.

For the sequence YRQKLLMFLEISSYYDPGRLICDF [VPS39], the protein stability index runs as follows: (treatment: DMSO) 2.92 ± 0.55; (treatment: MLN4924 1 uM, 8 h) 2.7 ± 0.56.

TRWCHIVRDSDSLAESEFESAAFS [PHTF1]: the protein stability index is 3.45 ± 0.054 (treatment: DMSO) and 3.33 ± 0.29 (treatment: MLN4924 1 uM, 8 h).

Sequence WVEQAYADKCVCGPSAPPAPTPPS [TIAF1] had a protein stability index (treatment: DMSO) of 3.9 ± 0.17 and a protein stability index (treatment: MLN4924 1 uM, 8 h) of 3.9 ± 0.3.

RIYVLGGGTSWTAYSLNKIHAYNL [KLHDC10]: the protein stability index turned out to be 2.42 ± 0.41 (treatment: DMSO) and 2.61 ± 0.67 (treatment: MLN4924 1 uM, 8 h).

Take EKQMEEKRRANQKSSAQGPIPWFL [PPEF2]: the protein stability index is 3.71 ± 0.17 (treatment: DMSO) and 3.68 ± 0.32 (treatment: MLN4924 1 uM, 8 h).

The sequence FLMDLPSAGRSMPEASDQEEHLSP [RNF180] gave a protein stability index (treatment: DMSO) of 4.82 ± 0.21 and a protein stability index (treatment: MLN4924 1 uM, 8 h) of 5.08 ± 0.14.

Take SQAPVNKPKKKKEKKEKEKKKKDK [BRD3]: the protein stability index by setting is: (treatment: DMSO) 5.32 ± 0.32; (treatment: MLN4924 1 uM, 8 h) 5.3 ± 0.32.

On to RKTVCHNGVLGLSRLLFFLLGFLR [LPCAT4], for which the protein stability index by setting is: (treatment: DMSO) 2.92 ± 0.35; (treatment: MLN4924 1 uM, 8 h) 3.04 ± 0.38.

Regarding NEWRMVASMSKRRCGVGVSVLDDL [KLHL20], the protein stability index reads like this: (treatment: DMSO) 2.27 ± 0.52; (treatment: MLN4924 1 uM, 8 h) 2.25 ± 0.34.

For the sequence WLPESDCETVTCCLFSERDAAGAP [SMAD6], the protein stability index reads like this: (treatment: DMSO) 3.72 ± 0.58; (treatment: MLN4924 1 uM, 8 h) 3.96 ± 0.27.

Regarding HNTVKLGAFQAQEKELVFDIDMTD [PRIM1], the protein stability index reads like this: (treatment: DMSO) 4.22 ± 0.19; (treatment: MLN4924 1 uM, 8 h) 4.52 ± 0.28.

For GKKKISKADIGAPSGFKHVSHVGW [WAS], the protein stability index is 3.06 ± 0.24 (treatment: DMSO) and 3.1 ± 0.15 (treatment: MLN4924 1 uM, 8 h).

EVYQEVQAMFDTLGIPKSTTSDIP [FAM98B] registered a protein stability index (treatment: DMSO) of 3.09 ± 0.31 and a protein stability index (treatment: MLN4924 1 uM, 8 h) of 3.5 ± 0.49.

As to IFNHERFFWHLTLPERRGTCADRD [CASP6], the protein stability index runs as follows: (treatment: DMSO) 2.6 ± 0.21; (treatment: MLN4924 1 uM, 8 h) 2.93 ± 0.27.

On to ARQETKEMARKVIEHCSNFKEENM [ZER1], for which the protein stability index runs as follows: (treatment: DMSO) 4.74 ± 0.23; (treatment: MLN4924 1 uM, 8 h) 4.57 ± 0.45.

As to LMSGCSSELKNRMEYALNMLLQRC [PLK2], the protein stability index turned out to be 2.04 ± 0.22 (treatment: DMSO) and 2.22 ± 0.29 (treatment: MLN4924 1 uM, 8 h).

Take AHSNAISNCCFTFSGHFLCTSSWD [WDR88]: the protein stability index is, setting by setting: (treatment: DMSO) 2.48 ± 0.49; (treatment: MLN4924 1 uM, 8 h) 2.3 ± 0.57.

For the sequence IQQLLEPQQYMAFLPHHIMVKIFR [FBXO34], the protein stability index was 2.13 ± 0.31 (treatment: DMSO) and 2.53 ± 0.29 (treatment: MLN4924 1 uM, 8 h).

On to PSGTPELEVPKPGQPSEPEHGPSP [CHIT1], for which the protein stability index reads like this: (treatment: DMSO) 5.52 ± 0.25; (treatment: MLN4924 1 uM, 8 h) 5.47 ± 0.18.

For the sequence HNRKKHLNGLQHLKAKKVWYDMFR [ZMAT5], the protein stability index is, setting by setting: (treatment: DMSO) 2.22 ± 0.44; (treatment: MLN4924 1 uM, 8 h) 2.38 ± 0.27.

In the case of CQACRFMKCLKVGMLKEGVRLDRV [ESRRG], the protein stability index (treatment: DMSO) is 2.6 ± 0.45 and the protein stability index (treatment: MLN4924 1 uM, 8 h) stood at 2.04 ± 0.16.

As for GFPRVAPEDEVIVNQYVIRPGPSA [RNF208], the protein stability index is, setting by setting: (treatment: DMSO) 3.66 ± 0.25; (treatment: MLN4924 1 uM, 8 h) 3.67 ± 0.13.

Regarding RKQARQLENELDLKLVSFSKLCTS [GOSR1], the protein stability index is 3.03 ± 0.34 (treatment: DMSO) and 3.22 ± 0.54 (treatment: MLN4924 1 uM, 8 h).
